Target: GluA1::SNAP396 (UniProt P19490)
Chain of UniProt P19490 (P19490 19-907): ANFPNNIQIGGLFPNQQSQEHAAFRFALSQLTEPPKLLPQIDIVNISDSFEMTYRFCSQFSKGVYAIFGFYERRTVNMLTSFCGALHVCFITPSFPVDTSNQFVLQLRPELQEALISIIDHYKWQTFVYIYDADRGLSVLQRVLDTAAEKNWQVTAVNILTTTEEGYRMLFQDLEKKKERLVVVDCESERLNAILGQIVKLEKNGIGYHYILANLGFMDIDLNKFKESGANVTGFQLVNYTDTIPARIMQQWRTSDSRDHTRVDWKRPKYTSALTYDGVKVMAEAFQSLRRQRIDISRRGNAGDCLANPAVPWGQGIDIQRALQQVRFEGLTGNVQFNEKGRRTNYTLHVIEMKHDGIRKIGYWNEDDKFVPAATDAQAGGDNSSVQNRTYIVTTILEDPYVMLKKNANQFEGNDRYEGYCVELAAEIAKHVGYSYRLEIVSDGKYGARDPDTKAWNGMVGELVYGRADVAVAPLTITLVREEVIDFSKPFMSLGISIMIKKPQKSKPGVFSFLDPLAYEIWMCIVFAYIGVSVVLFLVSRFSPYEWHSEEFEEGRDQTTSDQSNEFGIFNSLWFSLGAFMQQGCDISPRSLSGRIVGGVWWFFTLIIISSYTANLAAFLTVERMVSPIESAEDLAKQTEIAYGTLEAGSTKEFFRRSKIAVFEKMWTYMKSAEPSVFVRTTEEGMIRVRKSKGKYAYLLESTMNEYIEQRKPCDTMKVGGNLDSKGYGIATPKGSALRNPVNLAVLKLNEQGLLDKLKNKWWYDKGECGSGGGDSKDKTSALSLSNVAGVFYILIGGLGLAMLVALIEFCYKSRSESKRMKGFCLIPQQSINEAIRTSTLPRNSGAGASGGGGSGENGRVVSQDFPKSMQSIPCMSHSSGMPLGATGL

B1: γ2 S44* (natural protein)
chain: MGLFDRGVQMLLTTVGAFAAFSLMTIAVGTDYWLYSRGVCKTKKVSENETSKKNEEVMTHSGLWRTCCLEGNFKGLCKQIDHFPEDADYEADTAEYFLRAVRASSIFPILSVILLFMGGLCIAASEFYKTRHNIILSAGIFFVSAGLSNIIGIIVYISANAGDPSKSDSKKNSYSYGWSFYFGALSFIIAEMVGVLAVHMFIDRHKQLRATARATDYLQASAITRIPSYRYRYQRRSRSSSRSTEPSHSRDASPVGVKGFNTLPSTEISMYTLSRDPLKAATTPTATYNSDRDNSFLQVHNCIQKDSKDSLHANTANRRTTPV
modifications: TCO*A (trans-cyclooct-2-ene-L-lysine) at 44, clicked with H-Tet-Cy3
recovery from desensitization τrec, whole-cell patch clamp, HEK293T cells with untagged GluA1 (flip isoform) and γ2 S44*::eGFP (GluA1 alone 162.6): 62.3 ms

B2: γ2::eGFP (natural protein)
chain: MGLFDRGVQMLLTTVGAFAAFSLMTIAVGTDYWLYSRGVCKTKSVSENETSKKNEEVMTHSGLWRTCCLEGNFKGLCKQIDHFPEDADYEADTAEYFLRAVRASSIFPILSVILLFMGGLCIAASEFYKTRHNIILSAGIFFVSAGLSNIIGIIVYISANAGDPSKSDSKKNSYSYGWSFYFGALSFIIAEMVGVLAVHMFIDRHKQLRATARATDYLQASAITRIPSYRYRYQRRSRSSSRSTEPSHSRDASPVGVKGFNTLPSTEISMYTLSRDPLKAATTPTATYNSDRDNSFLQVHNCIQKDSKDSLHANTANRRTTPV
recovery from desensitization τrec, whole-cell patch clamp, HEK293T cells with untagged GluA1 (flip isoform) and γ2::eGFP (GluA1 alone 162.6): 57.1 ms

B3: γ8::eGFP (natural protein)
chain: MESLKRWNEERGLWCEKGVQVLLTTIGAFAAFGLMTIAISTDYWLYTRALICNTTNLTAGDDGPPHRGGSGSSEKKDPGGLTHSGLWRICCLEGLKRGVCVKINHFPEDTDYDHDSAEYLLRVVRASSIFPILSAILLLLGGVCVAASRVYKSKRNIILGAGILFVAAGLSNIIGVIVYISANAGEPGPKRDEEKKNHYSYGWSFYFGGLSFILAEVIGVLAVNIYIERSREAHCQSRSDLLKAGGGAGGSGGSGPSAILRLPSYRFRYRRRSRSSSRGSSEASPSRDASPGGPGGPGFASTDISMYTLSRDPSKGSVAAGLASAGGGGGGAGVGAYGGAAGAAGGGGTGSERDRGSSAGFLTLHNAFPKEAASGVTVTVTGPPAAPAPAPPAPAAPAPGTLSKEAAASNTNTLNRKTTPV
recovery from desensitization τrec, whole-cell patch clamp, HEK293T cells with untagged GluA1 (flip isoform) and γ8::eGFP (GluA1 alone 162.6): 40.9 ms

B4: γ8 S72* (natural protein)
chain: MESLKRWNEERGLWCEKGVQVLLTTIGAFAAFGLMTIAISTDYWLYTRALICNTTNLTAGDDGPPHRGGSGKSEKKDPGGLTHSGLWRICCLEGLKRGVCVKINHFPEDTDYDHDSAEYLLRVVRASSIFPILSAILLLLGGVCVAASRVYKSKRNIILGAGILFVAAGLSNIIGVIVYISANAGEPGPKRDEEKKNHYSYGWSFYFGGLSFILAEVIGVLAVNIYIERSREAHCQSRSDLLKAGGGAGGSGGSGPSAILRLPSYRFRYRRRSRSSSRGSSEASPSRDASPGGPGGPGFASTDISMYTLSRDPSKGSVAAGLASAGGGGGGAGVGAYGGAAGAAGGGGTGSERDRGSSAGFLTLHNAFPKEAASGVTVTVTGPPAAPAPAPPAPAAPAPGTLSKEAAASNTNTLNRKTTPV
modifications: TCO*A (trans-cyclooct-2-ene-L-lysine) at 72, clicked with H-Tet-Cy3
recovery from desensitization τrec, whole-cell patch clamp, HEK293T cells with untagged GluA1 (flip isoform) and γ8 S72*::eGFP (GluA1 alone 162.6): 45.8 ms

— publication PMC8602626
